Assay: yeast display, Sf9 membrane polyspecificity reagent, FACS + sequencing; frameworks hold sequencing errors
Procedure, shortened: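 Synthetic nanobody libraries on Saccharomyces cerevisiae BJ5465 were galactose-induced for 36–48 hours, stained 1 hour at 4 °C with 10% biotinylated, detergent-solubilized Sf9 membrane reagent and enriched on streptavidin microbeads. FACS then separated cells into low and high (top ~1%) gates by anti-HA (expression) and streptavidin (reagent binding) fluorescence. Genes were colony-PCR amplified, MiSeq 2 × 250 sequenced and CDR-length filtered. A clone's polyreactivity label is that of its gate of origin.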

Row | Sequence | polyreactivity (PSR sort gate)
1 | QVQLVESGGGLVQAGGSLRLSCAASGSIFFYAMGWYRQAPGKERELVADITYTGGSKYADSVKGRFSISRDNAKNTVYLQMNSLKTEDTAVYYCAKLDGGLFDYWGQGTQVTVSS | low polyreactivity
2 | QVQLVESGGGLVQAGGSLRLSCAASGLTFGRNAMGWYRQAPGKERELVAAISRSGGRTSYADSVKGRFTISRDYAKNTVYLQMNSLKPEDTSVYFCAALSDVYTHDYWGQGTQVTVSS | high polyreactivity
3 | QVQLVESRGGSVQAGGSLRLSCAASGNIFYYAMGWYRQAPGKERELVAAISASGGSSYYADSVKGRFTISRDNAKNTVYLQMNSLKPEDTAVYYCKAVFYRGPGAQGDPRRRSDYWGQGTQVTVSS | high polyreactivity
4 | QVQLVESGGGLVQAGGSLRLSCAASGFIFRPYVMGWYRQAPGKERELVAAISRSGSSTYYADSVKGRFTISRDNAKNTVYLQMNSLQPEDTAVYYCARRTSQEFDYWGQGTQVTVSS | high polyreactivity
5 | QVQLVESGGGLVQAGGSLRLSCAASGRTFSSYVMGWYRQAPGKERELVASISRRGGSTYYADSVKGRFTISRDNAKNTVYLQMNSLKPEDTAVYYCNADLRGYGRGTDQYTFDYWGQGTQVTVSS | high polyreactivity
6 | QVQLVESGGGLVQAGGSLRLSCAASGSIFESYAMGCYRQAPGKERELVAAITKRGGSTYYADSVKGRFTISRDNSKNTFYLQMNSLKPEDTAVYYCNARSPGIGPIYDYWGQGTQVTVSS | low polyreactivity
7 | QVELVESGGGLVQAGGSLRISCDASGSTFRWYAMGWYRQGPGKERELVAAINRSGGSTYYADSVKGRFTISRDNAKNTVYLQMNSLKPEDTAVYYCEARWYSSSRWYKYNYWGQGTQVTVSS | high polyreactivity
8 | QVQLVESGGGLVQAGGSLRLSCAASGRTFVPYAMGWYRQAPGKERELVAAITSSGGSTYYADSVKGRFTISRDNAKNTVYLQMNSLKPEDTAVYYCNALDGTLRTIYDYWGQGTQVTVSS | high polyreactivity
9 | QVQLVESGGGLVQAGRSLRLTCAASGIIFIGNAMGWYRQATGKERELVAAISRRGGRTYYADSVKGRFTISRDNAKNTVYLQMFSLKPEDTAVYSCNAEITVNDDDYWGQGTQVTVSS | high polyreactivity
10 | QVQHVESGGGLVQAGGSLRLSCAASGRTVYGYTMGWDRQAPGKERELVAAISYSGDSTYYADSVKGRFTISRDTAKNTVYFPMNSLKPEYTAVYYCAVRRYARFNYHYWGQGPQVTVSS | high polyreactivity
11 | QVQLVESGGGLVEAGGSLRLSCAASGINFWVNAMGWYRQAPGKERELVAAIRSDGSTKYADSVKGRFSSSRDNAKNTVYLQMNSLKPEDTAIYYCAKRDFSYPWLRDFYYWGQGTQVTVSS | low polyreactivity
12 | QVQLVESGGGLVQAGGSLRISCAASGSIFGYYVMGWYRQAPGKERELVAAITGSVGDTYYADSVKGRFTISRDNAKNTVYLQMNSLKPVDTAVYYCNASNISPFRLLRSPMDYCGQGTQVTVSS | low polyreactivity
13 | QVQLVESGGGLVQAGGSLRLSCAASGFTFGRYAMGWYRQAPGKERELVAAISFSGGRTYYADSVKGRFTISRDNAKNTVYLQMNSLKPEDTAVYYCNTAYWYSLYDYWGQGTQVTVSS | high polyreactivity
14 | QVQLVESGGGLVQAGGSLRLSCAASGRTFGRYAMGWYRQAPWKERELVAVINGGGSTYYADSVKGRFTISRDNAKNTVYLQMNSLKPEDTAVDYCAVGGYTRTGGWFDYWGQGTQVTVSS | high polyreactivity
15 | QVQLVESGGGLVQAGGSLRLSCAASGFTFVYYAMGWYRQAPGKERELVAAIRSGGSTNYADSVKGRFTISRDNAKNTVYLQMNSLKPEDTAVYYCAAAYWKGRLVRYYYWGQGTQVTVSS | high polyreactivity
16 | QVQLGESGGGLVQAGGSLRLSCAASGLTFPVYPMGWYRQAPGKEREFVTAITYNGGRTYYADSVKGRFTISRDNAKNTVYLQMNSLKPEDTAVYYCNAARSRGANLVPPYRLYYWGQGTQVTVSS | low polyreactivity

Row | Sequence | polyreactivity (PSR sort gate)
17 | QVQLVESGGGLVQAGGSLRLSCAASGITFWKYTMGWYRQAPGKERELVAAITGRGGSTYYADSVKGRFTISRDNAMNTVYLQMNRLKPEDTAVYYCAAELRPGYRSSYGLIYDYWGQGTQVTVSS | low polyreactivity
18 | QVQLLESGGGLDQAGGSLRLSSAASGRTFGRNAMGWYRQAPGERELVAVISRGGSTYYADSVKGRFTISRDNAKNTVYLQMNSLKPEDTAVYYCNADTVYTRTAPYDYWGQGTQVTVSS | low polyreactivity
19 | QVQLVESGGGLVQAGGSLRLSCAASGRIFGKYAMGWYRPAPGKERELVAAIDGSGSTNYADSVKGRFTISRDNAKNTVYLQMNSLKPEDTAVYYCATDHAQKFRYRSPREYWGEGTQVTVSS | low polyreactivity
20 | QVQLVESGGGLDQAGGSLRLSCAASGFTLDYYAMGWYRQAPGKERELVAAISWSGGRTYYADSVKGRFTISRDNAKNTVYLQMNSLKPEDTAVYYCNASPYGRKYGILADGDYWGQGTQVTVSS | high polyreactivity
21 | QVQLVESGGGLVQAGGSLRLSCAASGSTFYRYAMGWYRQAPGKEREFVAAISGSGGSTRYADSVKGRFTISRDNAKNSVFLQMNSLKPEDTAVYYCAARSRYGYSTFDYWGHGTQVTVSS | high polyreactivity
22 | QVQLVESGGGLVQAGGSLRLSCAPSGRIFSYNTVMGWYRQAPGKERELVAAITYSSASTYYADSVKGRFTISRDNAKNTVYLQMNSLKPEDTAVYYCAAVRYERGLWSDYWGQGTQVTVSS | high polyreactivity
23 | QVQLVESGGGLVQAGRSLRLSCAASGFTFYYNAMGWYRQAPGKERELVAAISSGGSTYYADSVKGRFTISRDNAKNTVYLQMNSLKPEDTAVYYCAADSLYYRYDFWGQGTQVTVSS | low polyreactivity
24 | QVQLVESAGGLVQAGGILRLSCHASGITFTSYVMGWYRQSPGKERELVAAIRWSGGRTYYADSVKGRFTISRDNAKNTVYLQMNSLKPEDTAVYYCNRVTRSHVDYWGQGTQVTVSS | high polyreactivity
25 | QVQLVESGGGLVQAGGSLRLSCAASGIIFRWYTMGWFRQAPGKERELVAAITGRGGSTYYADSVKGRFTISRDNAKNTFYLQMNSLIPEDTAVYYCAAEGVRIGTRYDYWGQGTLVTVSS | high polyreactivity
26 | QVQLVESGGGLVQAGGSLRLSCAASGRIFPYMGWYRQAPGKERELVAAINASGGRTYYADSVKGRFTISRDNAKNTVYLQMNSLKPEDTAVYYCNAVWSSDTYTHPQYDYWGQGTQVTVSS | high polyreactivity
27 | QVQLVESGVGLVQAGGILSLSCAASGLTFGAYTMGWYRQAPGKERELVAAITSSGGRTYYADSVKGRFTISRDNAKITFYLQMNSLKPEDTAVFYCNARIFRSPNPYDYWGQGTQVSVSS | high polyreactivity
28 | QVQLVESAGGLVQEGGSLRLSCAASGRIFARYAMGWSRQAPGKERELVAAITDSGDNTYYADSVKGRFTISRDNAKNTVYLQMNSLKPEDTAVYYCKAYFLVHYRRLRPYDYWGHGTQVTVSS | low polyreactivity
29 | QVQLVESGGGLVQAGGSLRLSCAASGSIFSTYVMGWYRQAPGKERELVAAITVSVGSTYYADSVKGRFTISRDNAKNTVYLQMNSLKPEDTAVYYCAAYGGTGYPFDAYYHDYDYWGQGTQVSVSS | low polyreactivity
30 | QVQLVESGGGLVQAGGSLRLSCAASGSTFFRYAMGWYRQAPGKERELVAAISASGGRTYYADSVKGRFTISRDNAKNTVYLQMNSLKPEDTAVYYCNRQYGPYQYYYWGQGTQVTVSS | high polyreactivity
31 | QVQLVESGGGLVQAGGSRRLSCAASGSIFPVYAMGWYRQAPGKERELVASISTGGSTYYADSVKGRFTISRDNAKNTVYFQLNSLKPEDTAVYYCAATGWAYGYGYGYWGQGTQVTESS | low polyreactivity
32 | QVQLVESGGGLVQAGGSLRLSCAASGGIFKRNTMGWYRLAPGKERELVAAISRSGGSTYYADSVKGRFTISRDNAKNTVYLQMNSLKPEDTAVYYCARRFPYNYYVYGEDYWGQGTQVTVSS | high polyreactivity

From the nanobody polyreactivity screen of Harvey et al. (2022)
